The record followed here is patent US20050013820A1 (REGENTS OF THE UNIVERSITY OF MICHIGAN, published 2005).

For experiment [1], the target named is T1, cell surface calreticulin on human fibroblastoid M1 cells (human, UniProt P27797 18-417).
T1 sequence (looked up): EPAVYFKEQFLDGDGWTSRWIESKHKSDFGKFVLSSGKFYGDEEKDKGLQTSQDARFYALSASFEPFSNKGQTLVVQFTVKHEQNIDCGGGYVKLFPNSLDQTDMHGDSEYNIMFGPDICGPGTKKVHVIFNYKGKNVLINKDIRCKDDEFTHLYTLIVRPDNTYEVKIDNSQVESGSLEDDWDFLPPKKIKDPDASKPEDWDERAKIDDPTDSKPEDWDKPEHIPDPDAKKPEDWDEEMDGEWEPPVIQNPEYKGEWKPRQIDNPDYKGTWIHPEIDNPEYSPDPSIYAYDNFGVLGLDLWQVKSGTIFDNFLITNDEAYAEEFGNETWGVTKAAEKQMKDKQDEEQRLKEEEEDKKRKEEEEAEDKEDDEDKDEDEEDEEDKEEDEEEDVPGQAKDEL
Put plainly: cell-based or functional assay.

Experiment [2] addresses T2, recombinant human calreticulin (human, UniProt P27797 18-417).
T2 construct: Expressed in E. coli as a GST fusion; also called Crt; purified recombinant calreticulin
T2 sequence: T1 sequence (looked up)
Put plainly: SPR (Biacore 2000), calreticulin immobilized on CM5.
Description: Prior to use, biosensor chips CM5 were docked into a Biacore® 2000 and preconditioned in water at 100 μl/min by applying two consecutive 20-μl pulses of 50 mM NaOH, then 10 mM HCl, and finally 0.1% SDS. […] Immobilizations were conducted at 25° C. in HBS-EP (10 mM HEPES, pH7.4, 150 mM NaCl, 1 mM EDTA, 0.005% Surfactant P-20), with a flow of 10 μl/min. The CM5 surface was activated by 7 min injection of 200 mM EDC/50 mM NHS to prepare a high-capacity surface, with manual injection of 100 μg/ml calreticulin until 5500 RU level was approached. Then 100 μl of 1M ethanolamine was used to block remaining activated group.
Calreticulin and peptide binding were performed at 25° C. in binding buffer (10 mM HEPES, pH8.0, 50 mM KCl, 0.5 mM CaCl₂, 1% Triton-X100), with a flow rate of 10 μl/min. […] Binding assays were repeated at least 3 times. Kinetic analysis was performed using Kinetic separate kₐ/kd fitting in BIA evaluation 3.0 software.

On to KDLLEQKRAAVDTY [peptide 65-78*0401], for which the “inhibition of cAMP-mediated (2CA-induced) DNA repair induction in cells; IC50” value in experiment [1] is around 250 nM.

As for DKCLA [pentapeptide DKCLA], the “inhibition of NO induction by Sepharose bead-bound 65-79*0401 in M1 cells; IC50” value in experiment [1] is around 35 µM.

As for QKRAE (Synthetic pentapeptide) [pentapeptide QKRAE], the binding result in experiment [2] is on record as “no binding”.
